Test results taken from paper PMC6947844 (Antibody therapeutics, 2019).

Target: Human EGFRvIII extracellular domain (ECD) C-terminal His-tagged protein (Homo sapiens, deletion of amino acids 6 to 273)
Assay: BLI

B1: monoclonal antibody 40H3 (antibody, V domains shown)
VH: QVQLKQSGPGLVQPSQSLSITCTVSGFSLTNYGIHWLRQSPGKGLEWLGMMWRGGGTDYNAAFISRLTITKDTSKSQVFFRMNNLQTNDTAIYYCARKGVGMGLGYWGQGTSVTVSS
VL: DIQMTQSPASQSASLGESVTITCLASQTIGTWVAWYQQKPGRSPQLLIYGATNLADGVPSRFSGSGSGTKFSFKISSLQAEDFVSYYCQQLYSNPYTFGGGTKLEIK
B1 showed a Kd of roughly 0.27 nM.
